{"source": "paper doi:10.1101/2020.07.01.179531v1", "substrate": "O=P(O)(O)OC[C@@H](O)[C@@H](O)[C@H](O)[C@H](O)CO", "assay": "purified protein", "conditions": "3 mM DTT added; other conditions presumably as for EsM1Pase1short"}
{"protein": "EsM1Pase2 (Ectocarpus siliculosus) (protein) MEKAKAFDKMSILFDFDGTIGDTETPAMEVAFWELAPYLPDTTPDKLDGLMPEFVRDNAGKAFEFMVEKVDEDRKAAGLSTISEAFAAKSEPKEMLDAVDPHRKKFGLKTFAELRAPDGGEKENLLIQQKTETVDALSKIAQPCNGVPEVLAALTAAGVAFCISTTSPKPRVPASITACKLDEYFPADKVHSGESDFDPPRFKPNPSVYLKAAETEGKEPANCIAVEDSGSGVGSASNAGVGLTVGYVGASHIPDYKKDTHAEMLMSGGRAENGKGAEIVISDMTDLPKVIEFFAGEKIAGKSAPFDFPEELISSLKQPVWVHSTKA", "values": [{"measurement": "Km", "value": 1300, "unit": "µM"}, {"measurement": "kcat", "value": 0.05, "unit": "s⁻¹"}]}
